The source of these data is patent US10800847.

In test [1] the target is HLA-B*0801 (B8) (human). Put plainly: iBead MFI against regular-bead MFI, IVIg diluted 1:4.
Test [2] concerns the target HLA-B*1402 (B65) (human). The test is described as above.
The target in test [3] is HLA-B*0702 (B7) (human). The test is described as above.
The target in test [4] is HLA-B*1510 (B71) (human). The test is described as above.
Test [5] addresses HLA-B*1516 (B63) (human). The test is described as above.
Test [6] deals with HLA-B*1401 (B64) (human). Described as above.
Test [7] concerns the target HLA-B*1503 (B72) (human). Described as above.
The target of test [8] is HLA-B*1512 (B76) (human). The test is described as above.
Test [9] deals with HLA-B*1513 (B77) (human). The test is described as above.
In test [10] the target is HLA-B*1302 (B13) (human). The test is described as above.
Test [11] addresses HLA-B*1301 (B13) (human). The description is as above.
Test [12] has as its target HLA-B*1511 (B75) (human). The description is as above.
The target in test [13] is HLA-B*1502 (B75) (human). Kind of test: Luminex iBeads (#6), IVIg diluted 1:4.
Test [14] addresses HLA-B*0801 (B8) (human). Kind of test: Luminex iBeads (#6), IVIg diluted 1:4.
The target of test [15] is HLA-B*1501 (B62) (human). Kind of test: Luminex iBeads (#6), IVIg diluted 1:4.
Test [16] has as its target Serum albumin on negative control beads (HSA/BSA) (human or bovine). Put plainly: Luminex iBeads (#6), IVIg diluted 1:4.
Test [17] addresses HLA-B*1402 (B65) (human). Kind of test: Luminex iBeads (#6), IVIg diluted 1:4.
In test [18] the target is HLA-B*0702 (B7) (human). Kind of test: Luminex iBeads (#6), IVIg diluted 1:4.
Test [19] addresses HLA-B*1510 (B71) (human). Kind of test: Luminex iBeads (#6), IVIg diluted 1:4.
Test [20] deals with HLA-B*1516 (B63) (human). Put plainly: Luminex iBeads (#6), IVIg diluted 1:4.
The target in test [21] is HLA-B*1401 (B64) (human). Kind of test: Luminex iBeads (#6), IVIg diluted 1:4.
Test [22] has as its target HLA-B*1503 (B72) (human). Put plainly: Luminex iBeads (#6), IVIg diluted 1:4.
The target of test [23] is HLA-B*1801 (B18) (human). Kind of test: Luminex iBeads (#6), IVIg diluted 1:4.
The target in test [24] is HLA-B*1513 (B77) (human). Put plainly: Luminex iBeads (#6), IVIg diluted 1:4.
The target of test [25] is HLA-B*1301 (B13) (human). Kind of test: Luminex iBeads (#6), IVIg diluted 1:4.
Test [26] has as its target HLA-B*1511 (B75) (human). Kind of test: Luminex iBeads (#6), IVIg diluted 1:4.
Test [27] deals with HLA-Cw*0702 (Cw7) (human). Put plainly: Luminex, iBeads (#6), 1:4.
Test [28] has as its target HLA-Cw*1601 (Cw16) (human). Put plainly: Luminex, iBeads (#6), 1:4.
For test [29], the target named is HLA-Cw*1701 (Cw17) (human). Put plainly: Luminex, iBeads (#6), 1:4.
Test [30] concerns the target HLA-Cw*0602 (Cw6) (human). Put plainly: Luminex, iBeads (#6), 1:4.
Test [31] deals with HLA-Cw*0501 (Cw5) (human). Kind of test: Luminex, iBeads (#6), 1:4.
Test [32] concerns the target HLA-Cw*1502 (Cw15) (human). Put plainly: Luminex, iBeads (#6), 1:4.
Test [33] has as its target HLA-B*4402 (B44) single antigen on Luminex beads (human). Put plainly: Luminex single antigen, regular beads (#7), IVIg 1:8.
Test [34] concerns the target HLA-B*4101 (B41) single antigen on Luminex beads (human). The description is as above.
For test [35], the target named is HLA-B*4701 (B47) single antigen on Luminex beads (human). The test is described as above.
Test [36] addresses HLA-B*2708 (B27) single antigen on Luminex beads (human). The description is as above.
Test [37] has as its target HLA-B*4001 (B60) single antigen on Luminex beads (human). Described as above.
In test [38] the target is HLA-B*3501 (B35) single antigen on Luminex beads (human). Described as above.
Test [39] has as its target HLA-B*4201 (B42) single antigen on Luminex beads (human). Described as above.
Test [40] concerns the target HLA-B*4501 (B45) single antigen on Luminex beads (human). Described as above.
Test [41] has as its target HLA-B*4002 (B61) single antigen on Luminex beads (human). The test is described as above.
The target of test [42] is HLA-B*3701 (B37) single antigen on Luminex beads (human). Described as above.
The target of test [43] is HLA-B*2705 (B27) single antigen on Luminex beads (human). Described as above.
Test [44] deals with Albumin on negative control beads (serum albumin, HSA/BSA) (human or bovine). Put plainly: Luminex single antigen beads, regular beads (#7), 1:8.
For test [45], the target named is HLA-A*0301 (A3) on single antigen beads (human) (UniProt P04439). Described as above.

“IVIg Sandoglobulin (Novartis, Basel, Switzerland) (antibody)”: the Difference % (iBead vs regular bead) in test [1] is 18%; in test [2], -36%; in test [3] it was 41%; in [4], 13%; in [5], -5%; in test [6] it was -67%. For the same substance, the Difference % (iBead vs regular bead) in test [7] is 0%; in test [8], 199%; in test [9], -19%; in [10], 5%; in [11] it was -4%; in test [12], -13%. Besides, the MFI in test [13] was found to be 245 MFI; in test [14] it was 274 MFI; in test [15], 148 MFI; in test [16], 667 MFI; in test [17] it was 152 MFI; in test [18], 436 MFI. For the same substance, the MFI in [19] came out at 271 MFI; in test [20], 756 MFI; in [21], 206 MFI; in test [22] it was 0 MFI; in test [23] it was 114 MFI; in [24], 445 MFI. Also, the MFI in test [25] came out at 504 MFI; in [26] it was 552 MFI; in test [27], 746 MFI; in [28], 613 MFI; in test [29], 1050 MFI; in test [30] it was 627 MFI. Further, the MFI in [31] is 710 MFI; in [32] it was 458 MFI.
Consider “Octagam (IVIg, Octapharma, Lachen, Switzerland) (antibody)”, for which the MFI in test [33] came to 4000 MFI; in test [34], 393 MFI; in [35], 2200 MFI; in test [36], 54 MFI; in [37] it was 987 MFI; in [38] it was 964 MFI. The MFI in [39] is 364 MFI; in test [40], 956 MFI; in test [41] it was 271 MFI; in [42], 9970 MFI; in test [43], 154 MFI; in test [44], 2340 MFI. Besides, in [45], the MFI is 515 MFI.
